Results: patent US9066906B2, “Lunasin-containing complex and purification of lunasin from plants” (University of Louisville Research Foundation, Inc., priority 2009, dated 2015)
“Also recorded” adds a separate entry of the source.

B1: lunasin-containing complex: lunasin polypeptide of SEQ ID NO: 2 linked by disulfide bridges to a second polypeptide of SEQ ID NO: 3, 14.1 kDa, from soybean (protein)
chain 1: SKWQHQQDSCRKQLQGVNLTPCEKHIMEKIQGRGDDDDDDDDDN
chain 2: EGKDEDEEEEGHMQKCCTEMSELRSPKCQCKALQKIMENQSEELEEKQKKKMEKELINLATMCRFGPMIQCDLSSDD
modifications: disulfide-linked complex; Glycine max

Experiments:
[1] = tested on: SK-BR-3 human breast cancer cells; assay: MTS cell proliferation assay, lunasin in combination with curcumin; assay type: cell-based; settings: FIG. 7; for effect on the antiproliferative effect of curcumin: SK-BR-3 breast cancer cells, in combination with curcumin
Description: FIGS. 7A and 7B include the results of MTS cell proliferation assays, using SK-BR-3 human breast cancer cells, performed in the absence or presence of either synthetic lunasin or purified soybean-derived lunasin in combination with curcumin over a 1-3 day period.
MTS cell proliferation assays using SK-BR-3 human breast cancer cells were performed in the absence or presence of either synthetic lunasin or purified soybean-derived lunasin in combination with curcumin over a 2-3 day period. SK-BR-3 cells, whose growth were unaffected by lunasin alone, were inhibited up to 98% when combined with curcumin.
With reference to FIG. 7, synthetic lunasin and highly purified soybean-derived lunasin were used in combination with curcumin in an in vitro cell proliferation assays to assess the activity of lunasin against specific cancer cell lines.

[2] = tested on: H661, non-small cell lung cancer; assay: MTS cell proliferation assay; assay type: cell-based, human; settings: lunasin 30 or 100 μM, complex 10 or 30 μM, 72 hours, FIG. 4
Description: (§1) The ability of lunasin, purified from soybean white flake in accordance with the presently-disclosed subject matter, to inhibit the proliferation of specific cancer cell lines was studied. Recent studies have shown that lunasin and lunasin-containing protein preparations can inhibit the proliferation of several cancer cell lines in vitro. To further assess and confirm the biological activity of lunasin and the lunasin-containing complex, cell proliferation assays were conducted with a panel of established cancer cell lines.
(§2) A panel of cancer cell lines was collected from colleagues or purchased from the American Type Culture Collection. Cells were grown in the appropriate medium and treated with PBS (control), lunasin (30 or 100 μM), or the lunasin-containing complex (10 or 30 μM) for 72 hours. Cell viability was assessed using a standard [3-(4,5-dimethylthiazol-2-yl)-5-(3-carboxymethoxy-phenyl)-2-(4-sulfo-phenyl)-2H-tetrazolium (MTS) assay. The data shown (FIG. 4) represent the number of viable cells relative to the PBS-treated controls. The human cell lines tested were: H661, non-small cell lung cancer; H1299, non-small cell lung cancer; SKBR3, adenocarcinoma mammary gland origin; MDA-MB-231, adenocarcinoma, mammary gland origin; MCF-7, adenocarcinoma, mammary gland origin; and HT-29, adenocarcinoma, colon origin.

[3] = tested on: MDA-MB-231, adenocarcinoma, mammary gland origin; assay: MTS cell proliferation assay; assay type: cell-based, human; settings: lunasin 30 or 100 μM, complex 10 or 30 μM, 72 hours, FIG. 4
Description: as §1, §2

[4] = tested on: H1299, non-small cell lung cancer; assay: MTS cell proliferation assay; assay type: cell-based, human; settings: lunasin 30 or 100 μM, complex 10 or 30 μM, 72 hours, FIG. 4
Description: as §1, §2

[5] = biological target: human histone H4 (hH4) (Homo sapiens, UniProt P62805); assay: in vitro histone binding assay (microtiter plate, anti-lunasin antibody, absorbance at 450 nm); settings: FIG. 3
Source text: (§3) The ability of lunasin, purified from soybean white flake in accordance with the presently-disclosed subject matter, to bind the cores histones H3 and H4 was studied. […] To confirm the biological activity of the lunasin purified from soybean white flake using the methods in the subject matter disclosed herein, an in vitro binding assay was used to assess binding to the human H3 and H4 proteins.
(§4) Increasing amounts of histone 3.3 (hH3.3) and histone 4 (hH4) were bound to wells of a […] microtiter plate. Different amounts of either synthetic lunasin or purified lunasin were added to the wells and allowed to bind. The concentration of lunasin bound was determined using a polyclonal antibody against lunasin and a horseradish peroxidase conjugated antibody that recognizes the lunasin antibody. Binding was quantitated by measuring the absorbance at 450 nm.

[6] = biological target: human histone H3 (hH3.3) (Homo sapiens, UniProt P84243); assay: as above; settings: FIG. 3
Source text: as §3, §4

[7] = tested on: MCF-7, adenocarcinoma, mammary gland origin; assay: MTS cell proliferation assay; assay type: cell-based, human; settings: complex 10 or 30 μM, 72 hours, FIG. 4
Description: as §1, §2

[8] = tested on: SKBR3, adenocarcinoma mammary gland origin; assay: MTS cell proliferation assay; assay type: cell-based, human; settings: complex 10 or 30 μM, 72 hours, FIG. 4
Description: as §1, §2

[9] = tested on: HT-29, adenocarcinoma, colon origin; assay: MTS cell proliferation assay; assay type: cell-based, human; settings: complex 10 or 30 μM, 72 hours, FIG. 4
Description: as §1, §2

[10] = tested on: panel of cancer cell lines; assay: MTS cell proliferation assays with a panel of established cancer cell lines; assay type: cell-based, human; settings: 72 hours, FIG. 4
Description: as §1, §2

Row | Molecule | growth of SK-BR-3 cells, lunasin alone ([1]; without curcumin, 2-3 day period) | growth/proliferation of H661 cells (viable cells relative to PBS-treated controls) [2] | growth/proliferation of MDA-MB-231 cells (viable cells relative to PBS-treated controls) [3] | growth/proliferation of H1299 cells (viable cells relative to PBS-treated controls) [4] | effect on the antiproliferative effect of curcumin [1] | binding to human histone H4 [5] | preference of binding, H4 versus H3 [5] | binding to human histone H3 [6] | proliferation of MCF-7 cells (viable cells relative to PBS-treated controls) [7] | proliferation of SKBR3 cells (viable cells relative to PBS-treated controls) [8] | proliferation of HT-29 cells (viable cells relative to PBS-treated controls) [9] | antiproliferative effectiveness compared with lunasin peptide alone [10]
1 | lunasin | unaffected | – | – | – | – | – | – | – | – | – | – | –
2 | soybean-derived lunasin: lunasin polypeptide purified from soybean white flake, 5139.25 Da, corresponding to SEQ ID NO: 2 (additional C-terminal Asn) (SKWQHQQDSCRKQLQGVNLTPCEKHIMEKIQGRGDDDDDDDDDN; Glycine max) | – | significantly inhibit the growth | minor effect | minor effect | significantly enhanced the antiproliferative effect of curcumin | affinity greater than that observed using a synthetic lunasin; also recorded: bound to both H4 and H3 in a dose dependent manner | higher affinity for H4 than for H3 | affinity greater than that observed using a synthetic lunasin; also recorded: bound to both H4 and H3 in a dose dependent manner | – | – | – | –
3 | synthetic lunasin: synthetic lunasin created by peptide synthesis, comprised of SEQ ID NO: 1 [reference compound] | – | – | – | – | significantly enhanced the antiproliferative effect of curcumin | binding was lower than observed using the soybean-derived lunasin | more binding to H4 compared to H3 | binding was lower than observed using the soybean-derived lunasin | – | – | – | –
4 | B1 | – | most sensitive | most sensitive | most sensitive | – | – | – | – | reduced proliferation | reduced proliferation | reduced proliferation | more effective than the lunasin peptide alone
